According to patent publication US11360100B2, “Methods and compositions useful in detecting proteins” (OREGON HEALTH & SCIENCE UNIVERSITY, priority 2016, dated 2022):
Entries after “also recorded” stand apart in the source; their conditions may differ. rhodamine = not defined here; BODIPY = not defined here

Key:
CoilZ-EGFP [1] = experiment: SDS-PAGE/PVDF membrane labeling of transfected HEK293FT lysates, CoilZ-EGFP; assay type: binding; details: cell lysates, SDS-PAGE, PVDF membrane
Protocol: The CoilY and CoilZ pair could be used to label two protein targets simultaneously. Transfected HEK293FT cell lysates from cells expressing mCherry, CoilY-mCherry, EGFP, or CoilZ-EGFP were resolved by SDS-PAGE and transferred to a PVDF membrane. The membrane was incubated sequentially with CoilZ-fluorescein and CoilY-rhodamine before imaging. GFP and mCherry fluorescence was not preserved due to SDS-PAGE protein denaturation.
(§1) A protein gel-based assay was optimized for analyzing VIP tags in vitro. Cell lysates were made from cells transfected with mCherry, CoilY-mCherry, GFP, or CoilZ-GFP, resolved by SDS-PAGE, and transferred to a membrane. GFP and mCherry fluorescence were not preserved in this experiment. The membrane was then contacted with CoilZ-fluorescein and CoilY-rhodamine before imaging. […] The probe peptides were specific for each tagged protein, and this single pair enabled specific and selective protein tagging of two distinct targets. In addition both the VIP E/R and VIP Y/Z tag sets could be used concurrently to label two recombinant proteins (DHFR and mCherry) without crosstalk (FIG. 23).

[2] = target: coiled-coil heterodimer pairs; details: heterodimer pair, Table 2; cited from earlier work
CoilZ-EGFP [3] = experiment: Fluorescence microscopy labeling of cell-surface CoilZ-GFP (CoilZ-EGFP); assay type: cell-based, human; details: fluorescence microscopy
Protocol: (§2) Fluorescence microscopy was used to confirm that the VIP Y/Z tag set enabled selective fluorescent labeling of proteins (FIGS. 3A and 3B). CoilZ was expressed by fusion to a cell-surface localized variant of GFP (CoilZ-GFP; pDisplay vector). […] Labeling was rapid (<30 min), target-specific, and live-cell compatible. Homodimerization between a CoilZ probe peptide and CoilZ-GFP was not observed. Cells expressing untagged GFP were not labeled with the CoilY probe peptide. CoilY was also expressed fused to the cell surface localized GFP and visualized using a CoilZ-AF647 probe peptide (FIG. 3B). No homodimerization of CoilY was observed, and the labeling was specific.
(§3) It was next confirmed that the VIP Y/Z tag set could be used in two-target imaging in fixed cells (FIGS. 5B and 13). A combination of cell lines singly-transfected with mCherry, GFP, CoilY-mCherry, or CoilZ-GFP was used, as illustrated in FIG. 9. […] Then we labeled two tagged FPs in one sample using a mixed population of cells expressing either CoilY-mCherry or CoilZ-GFP.
(§4) The disclosed methods were tested in transfected human osteosarcoma cells (U-2 OS). A pDisplay vector was used to target CoilZ-EGFP and untagged EGFP to the cell surface. This construct includes a C-terminal fusion to the transmembrane domain of the platelet derived growth factor receptor. As expected, both CoilZ-EGFP and untagged EGFP localized to the cell surface, and green fluorescence was observed within 24 h of transfection. Then the cells were blocked with 6% BSA and 10% FBS for 30 minutes at 37° C. and then contacted with an AF647-conjugated CoilY probe (CoilY-AF647), 30 min at 4° C. Cells were fixed before imaging by confocal fluorescence microscopy. The probe peptides are membrane impermeant; only cell-surface EGFP was accessible to CoilY-AF647 for labeling. Colocalization of green fluorescent CoilZ-EGFP with CoilY-AF647 was observed.
(§5) The CoilY/CoilZ tag set is also compatible with live-cell imaging. CoilZ-EGFP was contacted with CoilY-AF647 in live U2OS cells. […] Homodimerization was not observed for CoilY-EGFP incubated with CoilY-AF647. Non-specific labeling of untagged GFP was not observed (FIG. 26). Cells internalize labeled targets over time. CoilZ-GFP and CoilY-AF647 co-localization was observed on the surface and in endocytic vesicles due to rapid internalization, and AF647 signal accumulated inside cells during a 40 min. long incubation at room temperature (FIG. 12).
The VIPY/Z tag set can be used to label multiple protein targets simultaneously. Cells expressing CoilY-mCherry were combined with those expressing CoilZ-EGFP-pDisplay (FIG. 9). This mixed cell population, as well as unmixed CoilZ-GFP, CoilY-mCherry, and untagged controls, were plated for imaging. […] Fluorescence was detected by confocal fluorescence imaging. […]

untagged EGFP-TM = experiment: Flow cytometry of probe labeling, live U-2 OS cells expressing untagged EGFP-TM; assay type: cell-based, human; details: 500 nM probe
Protocol: The in vitro results were translated to living cells. Flow cytometry was used to evaluate protein labeling in live human osteosarcoma (U-2 OS) cells expressing CoilZ-EGFP-TM, CoilY-EGFP-TM, or untagged EGFP-TM (FIG. 11). Cells were treated with 500 nM AF647-conjugated probe peptide before analysis, and we gated for EGFP-expressing cells. […] Non-specific labeling of untagged EGFP-TM and homodimerization with CoilY-EGFP-TM were minimal for cells exposed to CoilY-AF647. Cells expressing CoilY-EGFP-TM were labeled with CoilZ-AF647, but with only a 4-fold enhancement.
Protein labeling was assessed as a function of CoilY-AF647 concentration (FIG. 25). Live cells expressing CoilZ-EGFP-TM or untagged EGFP-TM were treated with a range of CoilY-AF647 concentrations (50 nM to 1000 nM for 30 min at room temperature). […] Cells had 21- to 44-fold higher median fluorescence compared to cells expressing untagged protein. Treatment with 300 nM AF647-CoilY gave optimal labeling, with 98% of cells labeled and a 35-fold increase in AF647 fluorescence. Treatment with an excess of probe peptide (i.e., 1000 nM) enhanced the AF647 signal, but at the cost of a small increase in non-specific labeling.

[4] = tested on: untagged GFP/EGFP and mCherry; experiment: Fluorescence microscopy, cells expressing untagged fluorescent proteins; assay type: cell-based, human
Protocol: as §2, §3, §4
The CoilY/CoilZ tag set is bidirectional—either CoilZ or CoilY can serve as the probe peptide. CoilY-EGFP was expressed on the surface of U2OS cells and labeled with CoilZ-AF647. […]

CoilY-EGFP = experiment: Fluorescence microscopy labeling of cell-surface CoilY-GFP (CoilY-EGFP); assay type: cell-based, human
Protocol: as §2
The CoilY/CoilZ tag set is bidirectional—either CoilZ or CoilY can serve as the probe peptide. CoilY-EGFP was expressed on the surface of U2OS cells and labeled with CoilZ-AF647. Protein labeling was rapid (<30 min) and specific; non-specific labeling of untagged EGFP was not observed. Homodimerization was not observed for either CoilZ-AF647 with CoilZ-EGFP or CoilY-AF647 with CoilY-EGFP (FIG. 3B).
as §5

untagged TfR1 = target: T1, untagged TfR1 (Homo sapiens, UniProt P02786); experiment: CoilR probe labeling of CHO TRVb cells expressing untagged TfR1; assay type: cell-based; details: labeled at 4° C.
T1 construct: expressed in transfected cells; host or cells: CHO TRVb
T1 sequence (P02786 whole entry): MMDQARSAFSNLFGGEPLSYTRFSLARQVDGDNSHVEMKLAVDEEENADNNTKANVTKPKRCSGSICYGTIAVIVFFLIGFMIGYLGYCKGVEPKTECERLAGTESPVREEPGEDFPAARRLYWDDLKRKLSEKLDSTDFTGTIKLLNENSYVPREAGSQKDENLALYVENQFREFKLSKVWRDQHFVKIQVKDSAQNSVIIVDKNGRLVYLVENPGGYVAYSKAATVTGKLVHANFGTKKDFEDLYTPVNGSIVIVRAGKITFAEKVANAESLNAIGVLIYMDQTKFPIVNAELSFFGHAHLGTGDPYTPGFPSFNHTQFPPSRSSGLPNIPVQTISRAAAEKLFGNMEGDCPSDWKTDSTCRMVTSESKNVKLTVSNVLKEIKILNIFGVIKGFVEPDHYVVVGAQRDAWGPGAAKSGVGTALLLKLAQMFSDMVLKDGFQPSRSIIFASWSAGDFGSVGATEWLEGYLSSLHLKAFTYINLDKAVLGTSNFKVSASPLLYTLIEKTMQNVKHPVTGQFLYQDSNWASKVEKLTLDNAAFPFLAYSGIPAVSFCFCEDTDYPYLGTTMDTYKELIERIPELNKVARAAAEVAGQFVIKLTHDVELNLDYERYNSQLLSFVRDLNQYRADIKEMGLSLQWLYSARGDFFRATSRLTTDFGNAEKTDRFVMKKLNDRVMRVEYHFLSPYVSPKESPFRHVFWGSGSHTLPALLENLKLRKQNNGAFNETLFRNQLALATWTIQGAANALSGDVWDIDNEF

TfR1-MiniE = experiment: miniVIPER versus VIPER labeling of TfR1 in CHO TRVb cells; assay type: cell-based; details: Tf-AF488 and full length CoilR-Cy5
Protocol: FIG. 24 A and B are fluorescent micrographs comparing VIP E/R labeling with miniVIPER (MiniE and MiniR) labeling of TfR1. […] After labeling cells were imaged over time during a 30 min incubation at 37° C. Cells were imaged as confocal slices at 63× magnification. Transferrin-AF488 was false-colored green, CoilR-Cy5 was false-colored magenta, and nuclei were stained with Hoechst and false-colored blue. Individual channels are shown in FIG. 24B (blue, green, magenta) for the 5 minute timepoint. A Pearson's correlation analysis was used to compare fluorescence co-localization of CoilR-Cy5 with Transferrin-AF488. The p values are reported on the image and indicate that TfR1-miniE had better co-localization between Tf and CoilR labeling.
VIP E/R was edited by removing a heptad repeat, and changing key residues in the sequence to maximize affinity, improve dimer interface and create a smaller tag pair with more favorable charge balance for imaging in cells. MiniE (SEQ ID NO:10) and MiniR (SEQ ID NO:9) were created. TfR1 was tagged at the C-terminus with MiniE.

[5] = tested on: untagged mCherry and DHFR; experiment: SDS-PAGE/PVDF membrane labeling, untagged proteins; assay type: binding; details: lysates and purified proteins, PVDF membrane
Protocol: Crude lysates (lys.) and purified proteins (serial dilutions) were resolved by SDS-PAGE. Lysates were prepared from HERK 293FT cells transfected with mCherry, CoilY-mCherry, DHFR, and CoilE-DHFR. The protein gel was transferred to a PVDF membrane and then incubated with CoilZ-Fluorescein and CoilR-rhodamine. After washing, the membrane was imaged to detect VIPER labeling of DHFR (red) and VIP Y/Z labeling of mCherry (green). Untagged proteins were not labeled by either CoilR-rhodamine or CoilZ-fluorescein.
as §1

B1: CoilY-rhodamine: red fluorescent CoilY probe peptide, maleimide conjugate (conjugate)
peptide: MGSSNTVKELKNYIQELEERNAELKNLKEHLKFAKAELEFELAAHKFEGGGAAAC(rhodamine)LGKLAAALEHHHHHH
modifications: reading uncertain
notes: red fluorescent CoilY probe peptide, maleimide conjugate
- probe peptide binding to CoilZ-EGFP on membrane (CoilZ-EGFP [1]): specific coiled-coil heterodimer formation could be detected; also recorded: Probe peptide binding was detected

B2: VIP 1/2: heterodimeric tag pair of Coil1 and Coil2 (peptide)
chain 1: NLVAQLENEVASLENENETLKKKNLHKKDLIAYLEKEIANLRKKIEE
chain 2: ARNAYLRKKIARLKKDNLQLERDEQNLEKIIANLRDEIARLENEVASHEQ
- Kd [2]: < 10 nM

B3: CoilZ-AF647: CoilZ probe peptide conjugated to AF647 (conjugate)
peptide: MGSSQKVAQLKNRVAYKLKENAKLENIVARLENDNANLEKDIANLEKDIANLERDVARGGGAAACLGKLAAALEHHHHHH
- homodimerization / cross-reactivity of CoilZ probe with CoilZ-GFP/EGFP (CoilZ-EGFP [3]): not observed
- non-specific labeling of untagged EGFP-TM (untagged EGFP-TM): slightly higher
- non-specific labeling of untagged fluorescent proteins [4]: not observed
- labeling time (rapid) (CoilY-EGFP; CoilY-EGFP on surface of U2OS cells): < 30 min
- labeling of CoilY-GFP/EGFP (specificity) (CoilY-EGFP; fluorescence microscopy): specific

B4: CoilZ probe peptide: CoilZ with linker, reactive cysteine and His6 tag, SEQ ID NO: 14 (peptide)
chain: B3 peptide
- homodimerization / cross-reactivity of CoilZ probe with CoilZ-GFP/EGFP (CoilZ-EGFP [3]): not observed

B5: CoilR-BODIPY: CoilR probe peptide conjugated to BODIPY (conjugate)
peptide: MGGSLEIRAAFLRQRNTALRTEVAELEQEVQRLENEVSQYETRYGPLGGGAAALGC(BODIPY)LAAALEHHHHHH
modifications: reading uncertain
- labeling of cells expressing untagged TfR1 (untagged TfR1): showed now labeling

B6: miniVIPER: shorter, better charge balanced VIP E/R pair of MiniE and MiniR (peptide)
chain 1: LEIRVAFLRQRNTALRTEVAELEQEVQRLENRYGPL
chain 2: LEIEAAFLERENTALETRVAELRQRVQRLRNEYGPL
- Tf-AF488 signal compared to VIPER (TfR1-MiniE): brighter Tf-A488 signal
- colocalization between Tf-AF488 and CoilR-Cy5 compared to VIPER (TfR1-MiniE): improved colocalization

B7: CoilY probe peptide: CoilY with linker, reactive cysteine and His6 tag, SEQ ID NO: 13 (peptide)
chain: MGSSNTVKELKNYIQELEERNAELKNLKEHLKFAKAELEFELAAHKFEGGGAAACLGKLAAALEHHHHHH
- non-specific labeling of untagged fluorescent proteins [4]: not labeled

B8: CoilR-rhodamine: CoilR probe peptide conjugated to rhodamine (conjugate)
peptide: MGGSLEIRAAFLRQRNTALRTEVAELEQEVQRLENEVSQYETRYGPLGGGAAALGC(rhodamine)LAAALEHHHHHH
modifications: reading uncertain
- labeling of untagged proteins on membrane [5]: not labeled

B9: VIP 3/4: heterodimeric tag pair of Coil3 and Coil4 (peptide)
chain 1: NEVTTLENDAAFIENENAYLEKEIARLRKEKAALRNRLAHKK
chain 2: QKVAELKNRVAVKLNRNEQLKNKVEELKNRNAYLKNELATLENEVARLENDVAE
- Kd [2]: < 30 nM
